Experimental data published in patent US20120316071A1 (published 2012).
Numbering of substitutions follows the chain as printed. In names and notes the source's numbering stands. Read-outs that look alike come from different tables or passages of the source. Values belong to the binder of their own block, whether it stands above or below them.

Experiments:
[1] = target: T1, Recombinant Human DLL4 (R&D Systems Cat#1506-D4/CF) (human, UniProt Q9NR61 27-524); experiment: ECL (Meso Scale Discovery) multispot binding assay, DLL4 immobilised, Fab at 100 nM
T1 construct: Bought recombinant protein; also called delta-like protein 4; Delta-like 4

[2] = target: T2, Recombinant Human DLL4 (human, UniProt Q9NR61 27-524); experiment: ECL (MSD) 96-well plate assay; plate coated with 30 ug/mL DLL4; 0.02 uM Fab
T2 construct: Bought recombinant protein (R&D Systems Cat#1506-D4/CF); also called delta-like protein 4; Delta-like 4

[3] = target: T2, Recombinant Human DLL4; experiment: ECL (MSD) 96-well plate assay; plate coated with 15 ug/mL DLL4; 0.004 uM Fab
[4] = target: T3, Recombinant Human DLL4 (human, UniProt Q9NR61 27-524); experiment: ELISA, DLL4 coated, 100 nM Fab
T3 construct: Bought recombinant protein (R&D Systems Cat#1506-D4/CF), coated on the plate; also called delta-like protein 4; Delta-like 4

[5] = target: T3, Recombinant Human DLL4; experiment: ECL 96-well plate binding assay, DLL4 immobilised, 10 nM Fab
[6] = target: T4, Recombinant Human DLL4 (delta-like protein 4) (human, UniProt Q9NR61 27-529); experiment: ECL (MSD) multispot assay; Fab 0.1 µM
T4 construct: Bought recombinant protein (R&D Systems Cat#1506-D4/CF); also called rHuman DLL4; Delta-like 4

[7] = target: T4, Recombinant Human DLL4 (delta-like …); experiment: ECL (MSD) multispot assay; Fab 0.01 µM
[8] = target: T5, Recombinant Human DLL4 (delta-like protein 4) (human, UniProt Q9NR61 27-529); experiment: ELISA on coated DLL4, 100 nM Fab
T5 construct: Bought recombinant human DLL4 (R&D Systems Cat#1506-D4/CF), coated on the plate; also called rHuman DLL4; Delta-like 4

[9] = target: T5, Recombinant Human DLL4 (delta-like …); experiment: 96-well plate ECL (MSD) binding assay on coated DLL4, 10 nM Fab
[10] = target: T5, Recombinant Human DLL4 (delta-like …); experiment: ELISA on coated DLL4, 100 nM Fab; remark: listed apart in the source

- ECL signal [1]: 13500
B1: Fab VH5-51_IGHD5-18*01>3_IGHJ4*01 G100K/G104T (H:KT) & V3-4_IGLJ1*01 T31A (Fab, V domains shown)
VH: EVQLVQSGAEVKKPGESLKISCKGSGYSFTSYWIGWVRQMPGKGLEWMGIIYPGDSDTRYSPSFQGQVTISADKSISTAYLQWSSLKASDTAMYYCARRKYSYTYDYFDYWGQGTLVTVSS
VL: QTVVTQEPSFSVSPGGTVTLTCGLSSGSVSASYYPSWYQQTPGQAPRTLIYSTNTRSSGVPDRFSGSILGNKAALTITGAQADDESDYYCVLYMGSGISYVFGTGTKVTVL
notes: Fab expressed in E. coli; Plasmid A adds CH1 with His6 and Flag tags to the heavy chain; Plasmid E adds lambda CL to the light chain; also called G100K/G104T & T31A

- ECL signal [1]: 7700
B2: Fab VH5-51_IGHD5-18*01>3_IGHJ4*01 G100K/G104T (H:KT) & V3-4_IGLJ1*01 Y33A (Fab, V domains shown)
VH: B1 VH
VL: B1 VL with A31T, Y33A
notes: Fab expressed in E. coli; Plasmid A adds CH1 with His6 and Flag tags to the heavy chain; Plasmid E adds lambda CL to the light chain; also called G100K/G104T & Y33A

- ECL signal [1]: 9320
B3: Fab VH5-51_IGHD5-18*01>3_IGHJ4*01 G100K/G104T (H:KT) & V3-4_IGLJ1*01 V29A (Fab, V domains shown)
VH: B1 VH
VL: B1 VL with V29A, A31T
notes: Fab expressed in E. coli; Plasmid A adds CH1 with His6 and Flag tags to the heavy chain; Plasmid E adds lambda CL to the light chain; also called G100K/G104T & V29A

- ECL signal [1]: 2200
B4: Fab VH5-51_IGHD5-18*01>3_IGHJ4*01 G100K/G104T (H:KT) & V3-4_IGLJ1*01 Y34A (Fab, V domains shown)
VH: B1 VH
VL: B1 VL with A31T, Y34A
notes: Fab expressed in E. coli; Plasmid A adds CH1 with His6 and Flag tags to the heavy chain; Plasmid E adds lambda CL to the light chain; also called G100K/G104T & Y34A

- ECL signal [2]: 8710
- Signal/Noise [2]: 23
- ECL signal [3]: 4260
- Signal/Noise [3]: 29.2
B5: Fab VH1-46_IGHD6-6*01_IGHJ1*01 & L6_IGKJ1*01 (Fab, V domains shown)
VH: QVQLVQSGAEVKKPGASVKVSCKASGYTFTSYYMHWVRQAPGQGLEWMGIINPSGGSTSYAQKFQGRVTMTRDTSTSTVYMELSSLRSEDTAVYYCAREEYSSSSAEYFQHWGQGTLVTVSS
VL: not shown
notes: Tested as a Fab made in E. coli; VH was cloned into Plasmid A (CH1 constant region, His6 and Flag tags) and the kappa VL into Plasmid C (kappa CL); also called parent "Hit" Fab; parental

- ELISA signal [4]: 0.641
- ECL signal [5]: 123000
B6: Fab VH1-46_IGHD6-6*01_IGHJ1*01 S102A/S103P/S104F/H111F/I51T/N52L/S54T/G56H & L6_IGKJ1*01 (Fab, V domains shown)
VH: B5 VH with I51T, N52L, S54T, G56H, S102A, S103P, S104F, H111F
VL: not shown
notes: Tested as Fab expressed in E. coli: VH cloned into plasmid A (CH1 constant region, His6 and Flag tags), kappa VL cloned into plasmid C (kappa CL); also called APFF TLTH; H:APFF TLTH

- ECL signal [6]: 7000
- Signal/Noise [6]: 40.9
- ECL signal [7]: 1030
- Signal/Noise [7]: 4.9
B7: Fab VH1-46_IGHD6-6*01_IGHJ1*01 & L6_IGKJ1*01 (Fab, V domains shown)
VH: B5 VH
VL: not shown
notes: Germline 'Hit' Fab; The VH was cloned into Plasmid A (CH1, His6 and Flag tags) and the kappa VL into Plasmid C (kappa CL); expressed in E. coli; also called Parent; parental

- ELISA signal [8]: 1.1
- ECL signal [9]: 192000
B8: Fab VH1-46_IGHD6-6*01_IGHJ1*01 S102A/S103P/S104F/H111F/I51V/N52L/S54T/G56H (APFF VLTH) & L6_IGKJ1*01 (Fab, V domains shown)
VH: B5 VH with I51V, N52L, S54T, G56H, S102A, S103P, S104F, H111F
VL: not shown
notes: Fab made in E. coli; CH1 with tags and kappa CL are not included

- ELISA signal [8]: 0.62
- ECL signal [9]: 143000
B9: Fab VH1-46_IGHD6-6*01_IGHJ1*01 S102A/S103P/S104F/H111F/I51A/N52L/S54T/G56H (APFF ALTH) & L6_IGKJ1*01 (Fab, V domains shown)
VH: B5 VH with I51A, N52L, S54T, G56H, S102A, S103P, S104F, H111F
VL: not shown
notes: as for B8

- ECL signal [2]: 1100
- Signal/Noise [2]: 2.9
- ECL signal [3]: 181
- Signal/Noise [3]: 1.2
B10: Fab VH1-46_IGHD6-6*01_IGHJ1*01 S105A & L6_IGKJ1*01 (Fab, V domains shown)
VH: B5 VH with S105A
VL: not shown
notes: Heavy chain CDR3 alanine mutant of the parent Fab; Fab format with CH1, kappa CL, His6 and Flag tags from the expression plasmids

- ELISA signal [10]: 0.02
B11: Fab VH1-46_IGHD6-6*01_IGHJ1*01 S102A/S103P/S104F/H111F S54A & L6_IGKJ1*01 (Fab, V domains shown)
VH: B5 VH with S54A, S102A, S103P, S104F, H111F
VL: not shown
notes: Fab made in E. coli; CH1 with tags and kappa CL are not included; also called APFF S54A; H:APFF S54A

- ELISA signal [4]: 0.287
- ECL signal [5]: 108000
B12: Fab VH1-46_IGHD6-6*01_IGHJ1*01 S102A/S103P/S104F/H111F/I51T/N52L/P53H/S54T/G56H & L6_IGKJ1*01 (Fab, V domains shown)
VH: B5 VH with I51T, N52L, P53H, S54T, G56H, S102A, S103P, S104F, H111F
VL: not shown
notes: Tested as Fab expressed in E. coli (CH1 with His6/Flag tags from plasmid A; kappa CL from plasmid C); also called APFF TLHTH

- ELISA signal [4]: 0.219
- ECL signal [5]: 125000
B13: Fab VH1-46_IGHD6-6*01_IGHJ1*01 S102A/S103P/S104F/H111F/I51T/N52L/P53T/S54T/G56H & L6_IGKJ1*01 (Fab, V domains shown)
VH: B5 VH with I51T, N52L, P53T, S54T, G56H, S102A, S103P, S104F, H111F
VL: not shown
notes: Tested as Fab expressed in E. coli (CH1 with His6/Flag tags from plasmid A; kappa CL from plasmid C); also called APFF TLTTH

- ELISA signal [8]: 0.647
- ECL signal [9]: 155000
B14: Fab VH1-46_IGHD6-6*01_IGHJ1*01 S102A/S103P/S104F/H111F/I51H/N52L/S54T/G56H (APFF HLTH) & L6_IGKJ1*01 (Fab, V domains shown)
VH: B5 VH with I51H, N52L, S54T, G56H, S102A, S103P, S104F, H111F
VL: not shown
notes: as for B8

- ECL signal [6]: 19300
- Signal/Noise [6]: 139
- ECL signal [7]: 4100
- Signal/Noise [7]: 22.9
B15: Fab VH1-46_IGHD6-6*01_IGHJ1*01 S103P & L6_IGKJ1*01 (Fab, V domains shown)
VH: B5 VH with S103P
VL: not shown
notes: Fab; The VH was cloned into Plasmid A (CH1, His6 and Flag tags) and the kappa VL into Plasmid C (kappa CL); expressed in E. coli

- ELISA signal [4]: 0.017
- ECL signal [5]: 91500
B16: Fab VH1-46_IGHD6-6*01_IGHJ1*01 S102A/S103P/S104F/H111F/I51T/N52L/P53E/S54T/G56H & L6_IGKJ1*01 (Fab, V domains shown)
VH: B5 VH with I51T, N52L, P53E, S54T, G56H, S102A, S103P, S104F, H111F
VL: not shown
notes: Tested as Fab expressed in E. coli (CH1 with His6/Flag tags from plasmid A; kappa CL from plasmid C); also called APFF TLETH

- ELISA signal [8]: 0.407
- ECL signal [9]: 131000
B17: Fab VH1-46_IGHD6-6*01_IGHJ1*01 S102A/S103P/S104F/H111F/I51G/N52L/S54T/G56H (APFF GLTH) & L6_IGKJ1*01 (Fab, V domains shown)
VH: B5 VH with I51G, N52L, S54T, G56H, S102A, S103P, S104F, H111F
VL: not shown
notes: as for B8

- ELISA signal [4]: 0.433
- ECL signal [5]: 126000
B18: Fab VH1-46_IGHD6-6*01_IGHJ1*01 S102A/S103P/S104F/H111F/I51T/N52L/P53W/S54T/G56H & L6_IGKJ1*01 (Fab, V domains shown)
VH: B5 VH with I51T, N52L, P53W, S54T, G56H, S102A, S103P, S104F, H111F
VL: not shown
notes: Tested as Fab expressed in E. coli (CH1 with His6/Flag tags from plasmid A; kappa CL from plasmid C); also called APFF TLWTH

- ELISA signal [4]: 0.274
- ECL signal [5]: 99500
B19: Fab VH1-46_IGHD6-6*01_IGHJ1*01 S102A/S103P/S104F/H111F/I51T/N52L/P53Y/S54T/G56H & L6_IGKJ1*01 (Fab, V domains shown)
VH: B5 VH with I51T, N52L, P53Y, S54T, G56H, S102A, S103P, S104F, H111F
VL: not shown
notes: Tested as Fab expressed in E. coli (CH1 with His6/Flag tags from plasmid A; kappa CL from plasmid C); also called APFF TLYTH
